Measurements: the supplement of paper PMC11136658

System: peptide library, one residue held at a place counted from the Y acceptor
Assay: relative phosphorylation of the sub-library (ratio to the mean residue at this position); higher = residue favoured
Summary of the method: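 Every value reflects phosphorylation relative to the mean randomized residue. The sum of the 18 randomized residues, or 16 in the Ser/Thr-free library, served to normalize intensities at each position, which were then multiplied by that number. Intensities came from phosphorimaging with ImageQuant of biotinylated Tyr-centred peptides captured on streptavidin membranes after 90 min with purified recombinant kinases and 50 μM ATP plus γ-32P-ATP.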

Chain of BTK, construct: Full length, human (Q06187 whole entry, looked up): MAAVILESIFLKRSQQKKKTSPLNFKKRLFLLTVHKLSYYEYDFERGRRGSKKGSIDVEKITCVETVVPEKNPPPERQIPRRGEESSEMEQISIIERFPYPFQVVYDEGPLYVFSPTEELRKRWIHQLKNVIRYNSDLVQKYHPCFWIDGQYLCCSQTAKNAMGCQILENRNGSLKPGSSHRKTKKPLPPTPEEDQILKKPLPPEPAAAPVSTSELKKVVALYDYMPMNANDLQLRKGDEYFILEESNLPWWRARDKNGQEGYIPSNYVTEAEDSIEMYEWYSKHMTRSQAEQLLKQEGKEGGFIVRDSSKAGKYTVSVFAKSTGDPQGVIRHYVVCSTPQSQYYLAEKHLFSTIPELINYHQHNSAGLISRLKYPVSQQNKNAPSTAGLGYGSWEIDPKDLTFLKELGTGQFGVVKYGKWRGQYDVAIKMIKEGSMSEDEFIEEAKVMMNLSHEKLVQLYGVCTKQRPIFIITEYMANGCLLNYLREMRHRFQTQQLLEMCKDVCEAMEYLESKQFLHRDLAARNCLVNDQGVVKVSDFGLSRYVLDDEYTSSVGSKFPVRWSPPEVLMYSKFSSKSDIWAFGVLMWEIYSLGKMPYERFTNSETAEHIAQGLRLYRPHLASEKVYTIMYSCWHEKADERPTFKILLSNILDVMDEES

BTK, construct: Full length, human (from UniProt Q06187)
relative phosphorylation
Details | at +1 | at +2 | at +3 | at +4 | at +5 | at -1 | at -2 | at -3 | at -4 | at -5
A fixed | 1.39 | 0.87 | 1.06 | 0.754 | 0.911 | 0.443 | 0.964 | 0.709 | 1.04 | 0.982
D fixed | 0.67 | 0.561 | 0.345 | 0.63 | 0.755 | 0.375 | 1.14 | 1.22 | 1.19 | 1.1
E fixed | 1.36 | 1.13 | 0.302 | 0.661 | 0.676 | 0.416 | 1.24 | 1.71 | 1.41 | 0.914
F fixed | 0.954 | 1.32 | 1.41 | 1.1 | 1.46 | 1.97 | 0.934 | 1.43 | 1.13 | 1.21
G fixed | 1.1 | 0.546 | 0.759 | 0.928 | 0.941 | 0.308 | 1.04 | 0.779 | 1.03 | 1.01
H fixed | 0.657 | 0.679 | 0.995 | 1.02 | 0.909 | 1.3 | 0.871 | 1 | 0.984 | 1.02
I fixed | 1.17 | 1.19 | 1.42 | 1.01 | 0.796 | 2.79 | 0.874 | 0.799 | 1.01 | 1.04
K fixed | 0.398 | 0.873 | 1.01 | 1.17 | 1.05 | 0.294 | 0.708 | 0.644 | 0.736 | 0.884
L fixed | 1.03 | 0.884 | 0.801 | 0.915 | 1.05 | 2.9 | 1.3 | 0.812 | 1.1 | 0.941
M fixed | 1.43 | 1.05 | 0.925 | 1.38 | 1.24 | 1.55 | 0.796 | 1.11 | 1.03 | 1.18
N fixed | 0.466 | 0.827 | 0.886 | 0.779 | 0.949 | 0.589 | 1.21 | 1.1 | 0.823 | 1.17
P fixed | 0.181 | 0.636 | 0.553 | 0.772 | 1.23 | 0.526 | 1.19 | 0.967 | 1.03 | 0.99
Q fixed | 0.963 | 0.923 | 0.722 | 1.07 | 0.816 | 0.486 | 0.966 | 0.892 | 1.01 | 0.937
R fixed | 0.524 | 1.26 | 1.62 | 1.53 | 1.25 | 0.279 | 0.771 | 0.729 | 0.964 | 0.985
S fixed | 0.888 | 1.05 | 1.14 | 0.749 | 0.755 | 0.375 | 1.15 | 0.814 | 0.725 | 0.766
T fixed | 0.812 | 1.27 | 0.946 | 0.917 | 0.816 | 0.788 | 0.868 | 0.745 | 0.658 | 0.769
V fixed | 1.58 | 1.27 | 1.3 | 0.944 | 0.892 | 1.55 | 1.07 | 0.838 | 0.926 | 0.965
W fixed | 2.42 | 1.67 | 1.8 | 1.68 | 1.5 | 1.06 | 0.902 | 1.7 | 1.21 | 1.14
pThr fixed | 1.09 | 1.45 | 0.357 | 0.523 | 0.47 | 0.911 | 1.01 | 0.846 | 0.896 | 0.954
pTyr fixed | 1.22 | 1.58 | 0.433 | 0.603 | 0.684 | 1.26 | 1.14 | 1.15 | 1.26 | 1.09
